# Measured values reported in the nanobody polyreactivity screen of Harvey et al. (2022).
# Assay: yeast display, Sf9 membrane polyspecificity reagent, FACS + sequencing; frameworks hold sequencing errors
# Outline: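 A synthetic nanobody library was expressed on Saccharomyces cerevisiae BJ5465 by galactose induction for 36–48 hours. The library was stained for 1 hour at 4 °C with 10% biotinylated, detergent-solubilized Sf9 membrane reagent and enriched with streptavidin microbeads before FACS. Low and high (top ~1%) gates were set on anti-HA fluorescence for expression and streptavidin fluorescence for reagent binding, and each polyreactivity label reflects the gate of origin.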
row,Sequence,polyreactivity (PSR sort gate)
1,QVQLVESGGGLVQAGGSLRLSCAASGRIFTNNARGWYSQAPGKERELVDAINVSGGRTYYADSVKGRFTISRDNAKNTVYLQMNSLKPEDTAVYYCNKVKETYMDNWGQGTQVTVSS,high polyreactivity
2,QVQLVESGGGLVQARGSLRLSCAASGSIFNRNAMGWYRQAPGKERELVAAISRRGGSTYYADSVKGRFTISRDNEKNSVYLQMNSLKPEDTAVYYCAAATRKTEYDYWGQGTEVTVSS,low polyreactivity
3,QVQLVESGGGLVQAGGSLRLSWAASGFTFDSNAMGWSRPAPGKEREVVAAISWSGASTYADSVKGRFTISRDNAKNTVYLQMNSLKPEDTAVYYCAADDEDVLFDYWGQGTQVTVSS,low polyreactivity
4,QVQLVDSGGGLVQAGGSLRLSCAASGSIFKFYTMGWYRQAPGKERQLVAAISSSDGSTHYADSVKGRFTISRDNAKNTVYLQMNSLKPEDTAVYYCARRRYSRYSVTRGNYWGQGTQVTVSS,high polyreactivity
5,QVQLVESGGGLVQAGGSLRLSCAASGRTFRFNAMGWYRQAPGKESELVAAISSSGRTYYADSVKGRFTISRDNAKNTVYLQMNSLKPEDTAVYYCNKDPYLKLKMDYWGQGTQVTGSS,high polyreactivity
6,QVQLVESGGGLVQAGGSLRLRCAASGGTFGVNAMGWYRQAPGKERELVAAISSSGGRTYYADSVKGRFTISRDNAKNTVYLQMNSLKPEDTAVYYCAARNYFWGQGTQVTVSS,low polyreactivity
7,QVQLVESGGGLVQAGGSLRLSCAASGIFRKYAMGWYRQAPGTERELVAAITWGGGRTYYADSVKGRFTISRDNAKNTVYLQMNSLKPEDTAVYYCAAEYSLVPSYKVYYWGQGTQVTVSS,high polyreactivity
8,QVQLVESGGGLVQAGGSLRLSCAASGRTFSTNAMGLYRQAPGKEREFVAAITGSGGSTYYADSVKGRFTISRDNAKNTVYLQINSLKPEDTAVYYCAKRSAWHTYRYGYWGQGTQVTVSS,high polyreactivity
9,QVQLVESGGGLVQAGGSLRLICAASGRTYHYYTLGWYRQSPGKERELVARISLGVGSTYYADSVKGRFTISRDNAKNTVDLQMYTLIPEDTAVYYCNAVWYKSFVKGVYGRVDWGQGTQVTVSS,low polyreactivity
10,QVQLVESGGGLVQAGGSLRLSWAASGSIFQYVYAMGWYRQAPGKERELVATITWSGGSTYYSDSVKGRFTISRDNAKNTVYLQMNSLKPEDTAVYYCAAESIYYPVAQYYYSFEYWGQGTQVTVSS,low polyreactivity
11,QVQLVESGGGLVQAGGSLRLSCAASGRTFDVYAMGWYRQAPGKERELVATISYRSARTYYADSVKGRFTISRDNAKNTVYLQMNSLKPEDTAVYYCNAQSWRLYGHCYYWGQGTQVTVSS,high polyreactivity
12,QVQLVESGGGLVQAGGSLRLSCAASGSIFGGYAMGWYRPAPGKERELVASITKSGDSTYADSVKGRFTISRDNAKNTVYLQMNSLKPEDTAVYDCAADSTFGKFEYWGQGTQVTVSS,low polyreactivity
13,QVQLVESGGGLVQAGGSLRLICAASGGIIYWNAMGWYRQAPGKERELVATITRSGGSTYYADSVKGRFTISRDNAKNTVYLQMNSLKPEDTAVYYCAARSYYRFDYWGQGTQVTVSS,high polyreactivity
14,QVQLVESGGGLVQAGGSLRLSCAASGFIFAYNAMGWYRQAPGKERELDAAISRSGGSTRYADSVKGRFTISRDNAKNTVYLQMNSLKPEDTAVYYCNVSRYGYGVGRGLYIYDYWGQGTQVTVSS,high polyreactivity
15,QVHLVESGGGLVQAGGSLRLSCAASGSIISRYTMGWYRQAPGKERELVAAITSSGGSTYYADSVKGRFTISRDNAKNTVYLQMNSLKPEDTAVYYCNKVNRYGKFDYWGQGTQVTVSS,high polyreactivity
16,QVQLVESGGGLVQAGGSLRLSCAASGRIFDLNAMGWYRQAPGKERELVADINSGGSTYYADSVKGRFTISRDNAKNTVYLQMNSLKPEDTAVYYCAVRRNQHVVQMYYWGQGTQVTVSS,low polyreactivity

row,Sequence,polyreactivity (PSR sort gate)
1,QVQLVESGGGLVQAGGSLRLSCAASGTIFVAYDMGWYRQAPGKERELVAAINFDGTSTYYADSVKGRFTISRDNAKNTVYLQMNSLKPEDTAVYYCNKRVSPTYKGQYDYWGQGTQVTVSS,low polyreactivity
2,QVQLVESGGGLVQAGGSLRLSCAASGFIFSYYTMGWYRQAPGKERELVAAISRNGGSTYYADSVKGRFTISRDNAKNTVYLQMNSLKPEDTAVYYCAKRVFNYQRYDYWGQGTQVTVSS,high polyreactivity
3,QVQLVESAGGLVQAGVSLRLSCAASGFTSSRNAMGWYRQAPGKERELVATISSGGDTYYADSVKGRFTISRDNAKNTVYLQMNTLKPEDTAVYYCNKDPLYAWGYDYWGQGTQVTVSS,low polyreactivity
4,QVQLVESGGGLVQAGGSLRLSCAASGIIFPSYVMGWYRQAPGKERELVARISARGGRTYYADSVKGRFTISRDNAKNTVYLQMNSLKPEDTAVYYCAARWGITTWYDYWGQGTQVTVSS,high polyreactivity
5,QVQLVESVVGLVQAGRSLRLSCAASGYTFWQYAMGWYRQAPGKERELVATITSRGGSTYYADSVKGRFTISRDTAKNSVYFQMNSLKPEDTAVYYCAARVYYPSTSNAAYGYCGQGTQVTVSS,high polyreactivity
6,QVQLVESGGGLVQAGGSLRLSCAASGRTIASYAMGWYRQAPGKERELVAAITSGGSTYYADSVKGRFTISRDNAKNTVYLQMNSLKPEDTAVYYCAAYVRPAYYAIHVDYWGQGTQVTVSS,low polyreactivity
7,QVQLVESGGRLVQAGGSLRISCAASGSTFNGNVIVWSRQAPGKERELVAGISKSGGTTYYADSVKGRFTISRDNAKNTVYLQMNSLKPEDTAVYYCAARGRVRYYPQYDYWGQGTQVTVSS,high polyreactivity
8,QVQLVESGGGLVQAGGSLRLSCAASGSTFYWYAMGWYIQAPGKERELGAAIRWSGDRTYYADSVKGLFTISRDNAKNTVYLQMNSLKPEDTAVYYCAAGKGRPVGGRAYYYWGQGTQVTVSS,high polyreactivity
9,QVQLVESGGGLVQAGGSLRLSCAASGRTFSRYAMGWYRPAPGKERELVAAISWRGSSTYYADSVKGRFTISRDNAKNTVYLQMNSLKPEYTAVYYCNTVTYPYVPALFDYWGQGTQVTVSS,high polyreactivity
10,QVQLVESGVGLVQAGGSLRLSCADSGFTFRRYVMGWYRQAPGKERELVAGISASGDSTYYADSVKGRFTISRDYAKNTFYLQMNSLKPEDTAVYYCATVARYRYLESYYWGQGTQVTVSS,high polyreactivity
11,QVQLVESGGGLVQAGGSLRLSCSASGITFGRNTKGWYRQAPGKERELVAASDSGGNTYADSVKGRFTISRDNAKNTVYLQMNSLKPEDTAVYYCAVDGGEFSSYGYWGQGTQVTVSS,low polyreactivity
12,QVQLVESGGGLVQAGGSLRLSCAASGRTFLWNALGWYRQAPGKESELVARINLSGGRTYYADSVKGRFTISRDNAKNCVYLQMNSLKPEDTAVYYCAATVVRYRRDSWGQGTQVTVSS,low polyreactivity
13,QVQLVESGGGLVQAGGSLRLICAASGGTFGRNAMGWYRQAPGKERELVATITRRGGSTYYADSVKGRFTISRDNAKNTVYLQMNSLKPEDTAVYYCNALVTTTPRYDYWGQGTQVTVSS,high polyreactivity
14,QVQLVESGGGLFQAGGSLRLSCAASGSTFYRYTMGWYRQAPGKERELVASISRSGGSTYYADSVKGRFTISRDNAKNTVYLQMNSLKPEDTAVYYCAAKAQGKYYQYNYWGQGTQVTVSS,high polyreactivity
15,QVQLEESGGGLVQAGGSLRLSCAASGSTFPGNGMGCYRPEPGKERELVAYISGGGDSTYYADSVKGRFTISRDNAKNTVYLQMNSLKPEETAVYYCAADYRQEPGYTGYYYWGHGTQVTVSS,low polyreactivity
16,QVQLVESGGGLVQAGGSLRLSCAASGSIYYAMGWYRQAPGKEREFVAAINSGGSTYYADSVKGRFTISRDNAKNTVYLQMNSLKPEDTAVYYCAADVWTPYLMSLKYGYDYWGQGTQVTVSS,low polyreactivity
